Data from paper PMC6057269, “A Flat BAR Protein Promotes Actin Polymerization at the Base of Clathrin-Coated Pits” (Cell, 2018).
Changes are numbered by the printed parent chain. Blank lines part the entries; values can stand above or below the binder they belong to.

Legend:
[1] = target: the molecule itself; assay: SEC-MALS; Superdex S-200 10/300, 150 mM NaCl, 20 mM HEPES pH 7.5, 500 μM TCEP; F2B12 at two concentrations
[2] = target: T1, ITSN1 SH3d (aa1076-1138), recombinant (human, UniProt Q15811-1 1076-1138); assay: pull-down; GST-tagged SH3 domains on glutathione beads incubated with recombinant protein for 10 min at room temperature, 6 washes; Coomassie stained gel; conditions: both partners purified
T1 construct: Intersectin 1 long form (ITSN1L), human, fourth SH3 domain (SH3d), residues 1076-1138; The purification of this protein is not described; the tag was probably cleaved as for the FCHSD2 proteins (surmised); also called pOPINS-ITSN1-SH3d; source: E. coli, 6xHis-SUMO construct (pOPINS)
T1 sequence (looked up): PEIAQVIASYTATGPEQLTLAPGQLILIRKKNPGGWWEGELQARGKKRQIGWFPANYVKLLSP

[3] = target: T1, ITSN1 SH3d (aa1076-1138), recombinant; assay: ITC; isothermal titration calorimetry of FCHSD2 SH3-2 and ITSN1 SH3d; conditions and direction of titration not told; conditions: both partners purified
[4] = target: T2, GST-tagged ITSN1 SH3d (aa1076-1138) T1086A (human, UniProt Q15811-1 1076-1138, T1086A); assay: pull-down; GST-tagged SH3 domains on glutathione beads incubated with recombinant protein for 10 min at room temperature, 6 washes; Coomassie stained gel; conditions: both partners purified
T2 construct: Intersectin 1 long form (ITSN1L), human, SH3d, residues 1076-1138; also called crystal contact control mutant T1086; not shown: GST, N-terminal, kept
T2 sequence (looked up): T1 sequence (looked up) with T11A

[5] = target: the molecule itself; assay: cryo-EM structure; single particle cryo-EM of F2B1 at 0.15-0.3 mg/ml; C2 symmetry applied; 9.2 Å reconstruction

B1: FCHSD2 BAR + SH3-1 + SH3-2 (F2B12: aa1-629) (domain or fragment, human, UniProt O94868-1 1-629, looked up)
chain: MQPPPRKVKVTQELKNIQVEQMTKLQAKHQAECDLLEDMRTFSQKKAAIEREYAQGMQKLASQYLKRDWPGVKADDRNDYRSMYPVWKSFLEGTMQVAQSRMNICENYKNFISEPARTVRSLKEQQLKRCVDQLTKIQTELQETVKDLAKGKKKYFETEQMAHAVREKADIEAKSKLSLFQSRISLQKASVKLKARRSECNSKATHARNDYLLTLAAANAHQDRYYQTDLVNIMKALDGNVYDHLKDYLIAFSRTELETCQAVQNTFQFLLENSSKVVRDYNLQLFLQENAVFHKPQPFQFQPCDSDTSRQLESETGTTEEHSLNKEARKWATRVAREHKNIVHQQRVLNDLECHGAAVSEQSRAELEQKIDEARENIRKAEIIKLKAEARLDLLKQIGVSVDTWLKSAMNQVMEELENERWARPPAVTSNGTLHSLNADTEREEGEEFEDNMDVFDDSSSSPSGTLRNYPLTCKVVYSYKASQPDELTIEEHEVLEVIEDGDMEDWVKARNKVGQVGYVPEKYLQFPTSNSLLSMLQSLAALDSRSHTSSNSTEAELVSGSLNGDASVCFVKALYDYEGQTDDELSFPEGAIIRILNKENQDDDGFWEGEFNGRIGVFPSVLVEELSA
notes: FCHSD2, human, F-BAR + SH3-1 + SH3-2, residues 1-629; also called FCHSD2 (F2B12 construct); source: E. coli Rosetta (DE3), purified (HisTrap, anion exchange, Sumo protease, Superdex 200); not shown: His-SUMO, N-terminal, cleaved
stoichiometry N [1]: 2

B4: FCHSD2 SH3-2 (aa568-629), recombinant (domain or fragment, human, UniProt O94868-1 568-629, looked up)
chain: SVCFVKALYDYEGQTDDELSFPEGAIIRILNKENQDDDGFWEGEFNGRIGVFPSVLVEELSA
notes: FCHSD2, human, second SH3 domain, residues 568-629; that the same preparation was the prey of the GST pull-downs and the ITC sample is surmised; also called pOPINS-FCHSD2 SH3-2; F2S2; source: E. coli Rosetta (DE3), purified (HisTrap, anion exchange, Sumo protease, Superdex 200); not shown: His-SUMO, N-terminal, cleaved
Kd [3]: 248 nM
stoichiometry N [3]: ~1
binding result [4]: binds

B5: FCHSD2 BAR + SH3-1 (F2B1: aa1-530) (domain or fragment, human, UniProt O94868-1 1-530, looked up)
chain: MQPPPRKVKVTQELKNIQVEQMTKLQAKHQAECDLLEDMRTFSQKKAAIEREYAQGMQKLASQYLKRDWPGVKADDRNDYRSMYPVWKSFLEGTMQVAQSRMNICENYKNFISEPARTVRSLKEQQLKRCVDQLTKIQTELQETVKDLAKGKKKYFETEQMAHAVREKADIEAKSKLSLFQSRISLQKASVKLKARRSECNSKATHARNDYLLTLAAANAHQDRYYQTDLVNIMKALDGNVYDHLKDYLIAFSRTELETCQAVQNTFQFLLENSSKVVRDYNLQLFLQENAVFHKPQPFQFQPCDSDTSRQLESETGTTEEHSLNKEARKWATRVAREHKNIVHQQRVLNDLECHGAAVSEQSRAELEQKIDEARENIRKAEIIKLKAEARLDLLKQIGVSVDTWLKSAMNQVMEELENERWARPPAVTSNGTLHSLNADTEREEGEEFEDNMDVFDDSSSSPSGTLRNYPLTCKVVYSYKASQPDELTIEEHEVLEVIEDGDMEDWVKARNKVGQVGYVPEKYLQFPTS
notes: FCHSD2, human, F-BAR + SH3-1, residues 1-530; also called FCHSD2 F-BAR+SH3-1; source: E. coli Rosetta (DE3), purified (HisTrap, anion exchange, Sumo protease, Superdex 200); not shown: His-SUMO, N-terminal, cleaved
binding result [5]: binds

Second part, the binder after the results:

binding result [2]: binds
B2: GST-tagged FCHSD2 SH3-2 (aa568-629) N613A (domain or fragment, human, UniProt O94868-1 568-629, looked up)
chain: B4 chain with N46A
notes: FCHSD2, human, second SH3 domain, residues 568-629; also called crystal contact control mutant N613; not shown: GST, N-terminal, kept

binding result [2]: binds
B3: GST-tagged FCHSD2 SH3-2 (aa568-629) D583A (domain or fragment, human, UniProt O94868-1 568-629, looked up)
chain: B4 chain with D16A
notes: FCHSD2, human, second SH3 domain, residues 568-629; also called crystal contact control mutant D583; not shown: GST, N-terminal, kept
